Measured values from US20250320312A1 (OXITOPE PHARMA B V, published 2025).
Numbering of substitutions follows the chain as printed.

T1: Peptide 8: Biotin-AEAAAKEAAAKEAAAKEAAAKAAA-Tyr-acid (N-terminal biotin; C-terminal acid; no PC)
T1 construct: control peptide without PC
T1 peptide: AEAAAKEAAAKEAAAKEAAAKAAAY

T2: Peptide 4: Biotin-AGGGGSGGGGSGGGGSAAA-Tyr-acid (N-terminal biotin; C-terminal acid; no PC)
T2 construct: control peptide without PC
T2 peptide: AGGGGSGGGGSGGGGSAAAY

B1: PcOxP_DB02_E03 (scFv, V domains shown)
VH: EVQLLESGGGLVQPGGSLRLSCAASGFTFSDYYMEWVRQAPGKGLEWVAASRWKANDYTTEYADSVKGRFTISRDNSKNTLYLQMNSLRAEDTAVYYCARDYYGSSQWYFDVWGQGTLVTVSS
VL: DIVMTQSPDSLAVSLGERATINCTASESLYSSKHKKNYLAWYQQKPGQPPKLLIYGASWRYIGVPDRFSGSGSGTDFTLTISSLQAEDVAVYYCAQFYSYPLTFGGGTKVEIK
notes: scFv in periplasmic extract
B2: PcOxP_DB02_E08 (scFv, V domains shown)
VH: B1 VH with Y32D, S51T, W53N, Q107Y, V112S
VL: B1 VL with K36V, N37H, W59N
notes: scFv in periplasmic extract
B3: PcOxP_DB02_E11 (scFv, V domains shown)
VH: B1 VH with Y32Q, W53N, T60V, Q107Y
VL: B1 VL with T24K, A25S, Y30L, S31Y, H34N, K35N, W59N, I62S
notes: scFv in periplasmic extract
B4: PcOxP_DB02_E09 (scFv, V domains shown)
VH: B1 VH with Q107Y
VL: B1 VL with K36V, N37H, W59T, I62S, S99T
notes: scFv in periplasmic extract
B5: PcOxP_DB02_E02 (scFv, V domains shown)
VH: B1 VH with Y32E, W53N, K54S, A55G, D57S, E61A, Q107Y
VL: B1 VL with K36V, N37H, W59N
notes: scFv in periplasmic extract
B6: PcOxP_DB01_G05 (human IgG1) (antibody, V domains shown)
VH: B1 VH with D31S, W53N, D57E, Q107Y
VL: B1 VL with K36V, N37H, W59N, Q96N
B7: PcOxP_DB03_D08 (human IgG1) (antibody, V domains shown)
VH: B1 VH with T28W, Y32F, W53N, S106A, Q107Y
VL: DIQMTQSPSSLSASVGDRVTITCTASESLYSSKHKVHYLAWYQQKPGKAPKLLIYGASNRYIGVPSRFSGSGSGTDFTLTISSLQPEDFATYYCAQFYSYPLTFGGGTKVEIK
B8: PcOxP_DB01_F01 (human IgG1) (antibody, V domains shown)
VH: B1 VH with T28P, Y32F, W53N, S106P, Q107Y
VL: B1 VL with L29V, H34N, N37H, W59N, S99T
B9: PcOxP_DB02_C01 (human IgG1) (antibody, V domains shown)
VH: B1 VH with Y32A, W53N, Q107Y
VL: B7 VL
B10: PcOxP_DB01_H02 (human IgG1) (antibody, V domains shown)
VH: B1 VH with D31S, W53N, Q107Y
VL: B1 VL with E27S, K36V, N37H, W59N
B11: PcOxP_DB03_B11 (human IgG1) (antibody, V domains shown)
VH: B1 VH with Y32F, M34V, W53N, D57T, Q107Y
VL: B1 VL with K36V, N37H, S58Q, W59N, A95G
B12: PcOxP_DB03_G07 (human IgG1) (antibody, V domains shown)
VH: B1 VH with Y32H, W53N, S105Q, Q107Y
VL: B7 VL
B13: PcOxP_DB01_H01 (human IgG1) (antibody, V domains shown)
VH: B1 VH with D31S, W53N, D57L, Q107T
VL: B1 VL with K36V, N37H, W59N
B14: PcOxP_DB03_C03 (human IgG1) (antibody, V domains shown)
VH: B1 VH with Y32F, W53N, A55Y, Q107Y
VL: B7 VL
B15: PcOxP_DB04_E05 (human IgG1) (antibody, V domains shown)
VH: B1 VH with F27N, Y32F, W53N, D57Y, Q107Y
VL: B1 VL with K36V, N37H, W59N
B16: PcOxP_DB03_C10 (human IgG1) (antibody, V domains shown)
VH: B1 VH with D31S, W53N, D57E, Q107Y
VL: B1 VL with K36V, N37H, S58G, W59N
B17: PcOxP_DB03_C12 (human IgG1) (antibody, V domains shown)
VH: B1 VH with W53N, Q107Y
VL: B7 VL with I62G
B18: PcOxP_DB03_E01 (human IgG1) (antibody, V domains shown)
VH: B1 VH with W53N, T60V, Q107Y
VL: B7 VL with A57T, S99E
B19: PcOxP_DB01_D11 (human IgG1) (antibody, V domains shown)
VH: B1 VH with D31S, W53N, Q107Y, F110N
VL: B1 VL with H34W, K36V, N37H, W59N
B20: PcOxP_DB03_B09 (human IgG1) (antibody, V domains shown)
VH: B1 VH with D31S, W53N, Q107Y
VL: B1 VL with K36V, N37H, S58A, W59N
B21: PcOxP_DB01_C04 (human IgG1) (antibody, V domains shown)
VH: B1 VH with T28Q, Y32F, W53N, Q107Y
VL: B7 VL with S99Y
B22: PcOxP_DB01_B09 (human IgG1) (antibody, V domains shown)
VH: B1 VH with W53N, Q107Y
VL: B7 VL with I62T, S99H
B23: PcOxP_DB03_H08 (human IgG1) (antibody, V domains shown)
VH: B1 VH with F27G, Y32F, W53N, D57T, Q107Y
VL: B7 VL with A57S, S99Q
B24: PcOxP_DB02_A06 (human IgG1) (antibody, V domains shown)
VH: B1 VH with Y32Q, W53N, Q107Y
VL: B7 VL with A57L
B25: PcOxP_DB01_A06 (human IgG1) (antibody, V domains shown)
VH: B1 VH with W53N, Q107Y
VL: B7 VL with Q96E
B26: PcOxP_DB01_E05 (human IgG1) (antibody, V domains shown)
VH: B1 VH with W53N, Q107Y
VL: B7 VL with H37N, S99Q
B27: PcOxP_DB01_G09 (human IgG1) (antibody, V domains shown)
VH: B1 VH with W53N, D57T, Q107Y
VL: B7 VL with R60L, I62S
B28: PcOxP_DB02_H07 (human IgG1) (antibody, V domains shown)
VH: B1 VH with D31S, W53N, Q107Y
VL: B1 VL with K36V, N37H, W59N, I62N, S99T
B29: PcOxP_DB03_A09 (human IgG1) (antibody, V domains shown)
VH: B1 VH with W53N, Q107Y
VL: B7 VL with Y61G
B30: PcOxP_DB01_H04 (human IgG1) (antibody, V domains shown)
VH: B1 VH with T28A, Y32F, W53N, S106H, Q107Y
VL: B7 VL with R60L, Y61Q, I62S, S99Y
B31: PcOxP_DB01_D01 (human IgG1) (antibody, V domains shown)
VH: B1 VH with D31S, W53N, Q107Y
VL: B1 VL with S32P, K36V, N37H, W59N, S99I
B32: PcOxP_DB04_A11 (human IgG1) (antibody, V domains shown)
VH: B1 VH with W53N, D57T, Q107Y
VL: B1 VL with L29V, Y30L, W59T
B33: PcOxP_DB01_G10 (human IgG1) (antibody, V domains shown)
VH: B1 VH with Y32F, W53N, A55N, Q107Y
VL: B1 VL with T24K, E27Q, N37H, W59N, I62P, S99R

Biological target: T1, Peptide 8: …
Test: scFv ELISA
How it was run: (§1)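 Bound scFv was read as OD450 after HRP–anti-V5 detection, TMB development and HCl stop. PPE with BSA was incubated 1 h at RT on BSA-blocked wells coated overnight at 4° C. with peptide, or on streptavidin wells loaded 1 h with biotinylated PC-peptides at 1 μg/mL.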

Row | OD450 [OD450] | Molecule
1 | 0.05 | B1
2 | 0.04 | B2
3 | 0.04 | B3
4 | 0.04 | B4
5 | 0.05 | B5

Biological target: T2, Peptide 4: …
Test: scFv ELISA
How it was run: as §1

Row | OD450 [OD450] | Molecule
6 | 0.04 | B1
7 | 0.04 | B2
8 | 0.04 | B3
9 | 0.04 | B4
10 | 0.04 | B5

Biological target: PC-BSA
Test: ELISA (DELFIA TRF), PC-BSA coated, titrated IgG1

PC-BSA, sequence (P02769 25-607 limits assumed, form in doubt): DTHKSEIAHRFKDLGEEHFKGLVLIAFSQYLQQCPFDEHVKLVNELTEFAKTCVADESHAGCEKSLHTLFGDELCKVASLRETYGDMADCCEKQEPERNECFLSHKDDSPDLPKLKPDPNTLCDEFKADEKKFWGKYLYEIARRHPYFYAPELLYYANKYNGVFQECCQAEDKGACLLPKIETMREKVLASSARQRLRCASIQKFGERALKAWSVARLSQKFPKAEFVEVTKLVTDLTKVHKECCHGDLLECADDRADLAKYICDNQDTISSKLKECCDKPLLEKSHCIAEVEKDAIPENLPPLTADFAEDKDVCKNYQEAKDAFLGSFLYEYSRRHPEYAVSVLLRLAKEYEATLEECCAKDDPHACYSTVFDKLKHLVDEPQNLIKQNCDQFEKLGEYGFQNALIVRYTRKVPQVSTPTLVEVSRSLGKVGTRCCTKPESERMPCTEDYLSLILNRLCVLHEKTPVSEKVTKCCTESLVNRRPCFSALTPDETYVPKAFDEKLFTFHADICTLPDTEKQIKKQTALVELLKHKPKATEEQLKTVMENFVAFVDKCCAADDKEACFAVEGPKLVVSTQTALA

Row | EC50 [nM] | Molecule
11 | 0.39 | E06 parental IgG1 (antibody)
12 | 0.263 | B6
13 | 0.401 | B7
14 | 0.672 | B8
15 | 0.64 | B9
16 | 0.43 | B10
17 | 0.299 | B11
18 | 0.636 | B12
19 | 0.275 | B13
20 | 0.339 | B14
21 | 0.282 | B15
22 | 0.285 | B16
23 | 0.436 | B17
24 | 0.857 | B18
25 | 0.242 | B19
26 | 0.426 | B20
27 | 0.31 | B21
28 | 0.317 | B22
29 | 0.445 | B23
30 | 0.643 | B24
31 | 0.43 | B25
32 | 0.417 | B26
33 | 0.308 | B27
34 | 0.423 | B28
35 | 0.664 | B29
36 | 0.456 | B30
37 | 0.274 | B31
38 | 0.413 | B32
39 | 0.407 | B33

Biological target: Peptide 5: Biotin-…-[Tyr(PC)]-acid
Test: scFv ELISA

Row | OD450 [OD450] | Molecule
40 | 0.75 | B1
41 | 0.49 | B2
42 | 0.76 | B3
43 | 0.74 | B4
44 | 0.34 | B5

Biological target: Peptide 1: Biotin-…-[Tyr(PC)]-acid
Test: scFv ELISA

Row | OD450 [OD450] | Molecule
45 | 0.39 | B1
46 | 0.24 | B2
47 | 0.23 | B3
48 | 0.56 | B4
49 | 0.09 | B5

Biological target: BSA (UniProt P02769)
Test: scFv ELISA

BSA, sequence (P02769 25-607 limits assumed): as the sequence (P02769 25-607 limits assumed, form in doubt) above

Row | OD450 [OD450] | Molecule
50 | 0.08 | B1
51 | 0.07 | B2
52 | 0.06 | B3
53 | 0.07 | B4
54 | 0.06 | B5
